This series concerns NCCC(=O)O. Put plainly: purified protein. As to conditions: pH 7.8; 25.0 °C.

The Km is the concentration of substrate that gives half-maximal velocity. Broadly, the kcat/Km is the turnover number divided by the Michaelis constant. In the case of (Mycobacterium tuberculosis H37Rv), the Km was determined as 610 ± 10 µM and the kcat/Km was determined as 2600 M⁻¹ s⁻¹.

The values above are taken from publication PMC5704290.
